The series deals with the molecule itself. Kind of series: crystal structure; hDAPK1 CD + ARD (2.0 Å), hDAPK2 CD + ARD (1.47 Å) and hDAPK3 CD (3.1 Å) crystallised by vapor diffusion; homodimers in the crystals.

The values that follow come from article PMC4906247, “Death-Associated Protein Kinase Activity Is Regulated by Coupled Calcium/Calmodulin Binding to Two Distinct Sites” (Structure(London, England:1993), 2016).

B1: human death-associated protein kinase 3, catalytic domain (hDAPK3 CD, residues 1-274) (domain or fragment, UniProt O43293 1-274, looked up)
chain: MSTFRQEDVEDHYEMGEELGSGQFAIVRKCRQKGTGKEYAAKFIKKRRLSSSRRGVSREEIEREVNILREIRHPNIITLHDIFENKTDVVLILELVSGGELFDFLAEKESLTEDEATQFLKQILDGVHYLHSKRIAHFDLKPENIMLLDKNVPNPRIKLIDFGIAHKIEAGNEFKNIFGTPEFVAPEIVNYEPLGLEADMWSIGVITYILLSGASPFLGETKQETLTNISAVNYDFDEEYFSNTSELAKDFIRRLLVKDPKRRMTIAQSLEHSW
notes: death-associated protein kinase 3, human, CD, residues 1-274; Dimer in the crystal; also called hDAPK3 CD construct; source: E. coli Rosetta (DE3) pLysS, purified (glutathione Sepharose, TEV cleavage, SEC); not shown: GST, N-terminal, cleaved
Turning to B1, the binding result is recorded as “binds”.

B2: human death-associated protein kinase 1, catalytic domain and most of the autoregulatory domain (hDAPK1 CD + ARD, residues 1-312) (domain or fragment, UniProt P53355 1-312, looked up)
chain: MTVFRQENVDDYYDTGEELGSGQFAVVKKCREKSTGLQYAAKFIKKRRTKSSRRGVSREDIEREVSILKEIQHPNVITLHEVYENKTDVILILELVAGGELFDFLAEKESLTEEEATEFLKQILNGVYYLHSLQIAHFDLKPENIMLLDRNVPKPRIKIIDFGLAHKIDFGNEFKNIFGTPEFVAPEIVNYEPLGLEADMWSIGVITYILLSGASPFLGDTKQETLANVSAVNYEFEDEYFSNTSALAKDFIRRLLVKDPKKRMTIQDSLQHPWIKPKDTQQALSRKASAVNMEKFKKFAARKKWKQSVRLI
notes: death-associated protein kinase 1, human, CD and most of the ARD, residues 1-312; Dimer in the crystal; also called hDAPK1 CD + ARD construct (1-312); source: E. coli BL21(DE3), purified (Ni-NTA, TEV cleavage, SEC); not shown: His6, N-terminal, cleaved
For B2, the binding result is “binds”.
